Test results taken from patent publication US20150093388A1 (IMMUNOGEN, published 2015).

Key:
[1] = molecular target: T1, human folate receptor 1 (FOLR1) on cells, in cell lysates and in FFPE tissues (human, UniProt P15328 25-234, N-glycosylated at positions 69, 161 and 201); assay: Western blot of cell lysates
T1 construct: also called folate receptor alpha; FR-alpha
Experimental: (§1) Human FOLR1 has three potential sites for N-glycosylation at positions 69, 161 and 201 (UniProt), and, as reported in literature, all three sites are glycosylated. To characterize the nature of the epitopes recognized by the anti-FOLR1 antibodies described herein, binding experiments were performed with deglycosylated and non-treated receptor. Of the generated anti-FOLR1 clones, only clone 2.1 was used in the study because, based on the sequencing data, the clones are related and likely to bind to the same epitope. In addition to clone 2.1, two other anti-FOLR1 antibodies were included: huMov19 (WO 2011/106528) and clone BN3.2 (Leica). In order to deglycosylate FOLR1, recombinant human FOLR1 or lysates of FOLR1-positive KB or Igrov-1 cells were treated with a mixture of deglycosylation enzymes (Enzymatic DeGlycoMX Kit, QA-bio) according to the Manufacturer's protocol. Then, samples of treated and non-treated FOLR1 were used in ELISA and Western blot analysis. […] After 2 h incubation, antibody-antigen complexes were detected with hip-labeled goat anti-human (for huMov19) or anti-murine (for 2.1) secondary antibody (FIG. 7). […] The membrane was incubated with the anti-FOLR1 antibodies 2.1, huMov19, or BN3.2, and the antigen-antibody complexes were detected with the appropriate secondary anti-murine or anti human antibodies conjugated with horse-radish peroxidase (FIG. 8).

[2] = molecular target: T2, deglycosylated human FOLR1 in lysates of KB and Igrov-1 cells (human, UniProt P15328 25-234, glycans removed with a mixture of deglycosylation enzymes (Enzymatic DeGlycoMX Kit)); assay: Western blot of enzymatically deglycosylated cell lysates
T2 construct: Endogenous FOLR1 of cell lysates after enzymatic deglycosylation; also called deglycosylated lysates
Experimental: as §1

[3] = molecular target: T3, recombinant human FOLR1 (non-treated) (human, UniProt P15328 25-233, limits assumed, N-glycosylated (non-treated)); assay: ELISA, FOLR1 immobilized on the plate, hrp goat anti-human secondary
T3 construct: also called huFOLR1 recombinant protein; non-treated FOLR1
Experimental: as §1

[4] = molecular target: T4, deglycosylated recombinant human FOLR1 (human, UniProt P15328 25-233, limits assumed, glycans removed with a mixture of deglycosylation enzymes (Enzymatic DeGlycoMX Kit)); assay: ELISA, deglycosylated FOLR1 immobilized on the plate, hrp goat anti-human secondary
T4 construct: also called deglycosylated FOLR1
Experimental: as §1

[5] = molecular target: T5, recombinant FOLR2-His (R&D Systems) (UniProt P14207 17-228, limits assumed); assay: ELISA, FOLR2-His immobilized on Ni-NTA plate
T5 construct: not shown: His tag
Experimental: (§2) FOLR1 is a member of Folate Receptor family. Cross-reactivity of the anti-FOLR1 antibodies with the other members of the family FOLR2 and FOLR3 was assayed by ELISA. Recombinant protein FOLR2-His or FOLR3-His (R&D Systems) was immobilized to Ni-NTA plates (QIAGEN) and the anti-FOLR1 antibodies were added to the plates and incubated for 2 hours at room temperature. As positive controls for FOLR2 and FOLR3 ELISA polyclonal anti-FOLR2 and FOLR3 antibodies (R&D systems), respectively, were used. The formed antibody-antigen complexes were detected with hip-labeled goat anti-murine secondary antibody.

[6] = molecular target: T6, recombinant FOLR3-His (R&D Systems) (UniProt P41439 23-245, limits assumed); assay: ELISA, FOLR3-His immobilized on Ni-NTA plate
T6 construct: not shown: His tag
Experimental: as §2

[7] = molecular target: T7, recombinant human FOLR1-murine IgG2a Fc protein (human; murine, UniProt P15328 25-234, limits assumed); assay: ELISA, recombinant human FOLR1-murine Fc2a immobilized on the plate, hrp goat anti-murine secondary
T7 construct: also called humanFOLR1-murine Fc2a; FOLR1-Fc; not shown: murine IgG2a Fc
Experimental: The binding affinity of the anti-FOLR1 antibodies was examined by ELISA where recombinant humanFOLR1-murine Fc2a protein was used as the antigen. The recombinant protein was immobilized on microtiter plates, and the antibodies were added at a range of concentrations to the plates. The plates were incubated for two hours at room temperature, washed with PBS supplemented with 0.05% Tween-20, and incubated with hrp-labeled goat anti-murine secondary antibody for one hour at room temperature. The plates were washed with PBS/Tween-20 again, and bound hrp-conjugated antibody was detected by adding the hrp-substrate TMB (Bio-FX).

T5 sequence (P14207 17-228 limits assumed): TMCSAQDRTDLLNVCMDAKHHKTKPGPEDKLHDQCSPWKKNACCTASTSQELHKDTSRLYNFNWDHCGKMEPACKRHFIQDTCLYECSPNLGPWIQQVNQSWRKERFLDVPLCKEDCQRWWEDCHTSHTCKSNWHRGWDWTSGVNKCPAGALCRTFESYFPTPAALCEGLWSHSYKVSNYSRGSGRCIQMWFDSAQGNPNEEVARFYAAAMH
T6 sequence (P41439 23-245 limits assumed): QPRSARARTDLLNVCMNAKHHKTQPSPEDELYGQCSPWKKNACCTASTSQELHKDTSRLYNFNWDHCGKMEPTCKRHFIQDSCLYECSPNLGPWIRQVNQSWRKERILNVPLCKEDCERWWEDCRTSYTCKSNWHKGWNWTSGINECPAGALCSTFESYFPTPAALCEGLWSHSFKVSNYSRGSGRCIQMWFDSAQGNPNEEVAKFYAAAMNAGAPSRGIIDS
T7 sequence (P15328 25-234 limits assumed): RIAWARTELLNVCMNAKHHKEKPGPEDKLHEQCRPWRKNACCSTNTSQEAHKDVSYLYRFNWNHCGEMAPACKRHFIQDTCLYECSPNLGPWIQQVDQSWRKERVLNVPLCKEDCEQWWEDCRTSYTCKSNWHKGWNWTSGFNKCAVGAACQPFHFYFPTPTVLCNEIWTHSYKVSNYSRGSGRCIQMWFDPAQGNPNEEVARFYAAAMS
T1 sequence (P15328 25-234): as the sequence (P15328 25-234 limits assumed) above
T2 sequence (P15328 25-234): as the sequence (P15328 25-234 limits assumed) above
T3 sequence (P15328 25-233 limits assumed): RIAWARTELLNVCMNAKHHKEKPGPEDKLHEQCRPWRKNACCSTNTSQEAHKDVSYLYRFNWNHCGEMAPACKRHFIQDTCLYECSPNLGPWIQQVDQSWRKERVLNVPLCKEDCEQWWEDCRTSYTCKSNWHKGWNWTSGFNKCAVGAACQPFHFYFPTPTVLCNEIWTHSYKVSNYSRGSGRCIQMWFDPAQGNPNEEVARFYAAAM
T4 sequence (P15328 25-233 limits assumed): as above

Binder	binding result [1]	binding result [2]	binding result [3]	binding result [4]	binding result [5]	binding result [6]	EC50 [7]
huMov19 (antibody, human IgG1, kappa, V domains shown, the full chains labelled huMov19 HC (55) and huMov19 LCv1.60 (57) are used; also called M9346A; antibody of IMGN853) VH: QVQLVQSGAEVVKPGASVKISCKASGYTFTGYFMNWVKQSPGQSLEWIGRIHPYDGDTFYNQKFQGKATLTVDKSSNTAHMELLSLTSEDFAVYYCTRYDGSRAMDYWGQGTTVTVSS VL: DIVLTQSPLSLAVSLGQPAIISCKASQSVSFAGTSLMHWYHQKPGQQPRLLIYRASNLEAGVPDRFSGSGSKTDFTLTISPVEAEDAATYYCQQSREYPYTFGGGTKLEIKR	binds	binds	binds	binds			
muFRIHC2-1 (anti-FOLR1 antibody 353.2-1, ATCC PTA-120197) (antibody, mouse IgG1, kappa, V domains shown, also called FOLR1-2.1) VH: QVQLQQSGPELVKPGASVRISCKASGYTFTNSYIHWVKKRPGQGLEWIGWIYPESLNTQYNEKFKAKATLTADKSSSTSYMQLSSLTSEDSAVYFCARRGIYYYSPYALDHWGQGASVTVSS VL: DVVLTQTPLSLPVNIGDQASISCKSSKSLLNSDGFTYLDWYLQKPGQSPQLLIYLVSNHFSGVPDRFSGSGSGTDFTLKISRVEAEDLGVYYCFQSNYLPLTFGGGTKLEIKR					no binding (tested: 10^-8 M)	no binding (tested: about 3x10^-8 M)	0.5 nM

Continued, values first:

binding result [1]	binding result [2]	binding result [3]	binding result [4]	binding result [5]	binding result [6]	EC50 [7]	Binder
				no binding (tested: 10^-8 M)	no binding (tested: about 3x10^-8 M)		muFRIHC5-7 (anti-FOLR1 antibody 353.5-7) (antibody, mouse IgG1, kappa, V domains shown, Murine monoclonal; also called clone 5.7) VH: QVQLQQSGPEVVKPGASVRISCKASGYTFTNYYIHWVKQRPGQGLEWIGWIYPGSFNVEYNEKFKAKATLTADKSSSTVYMQLSSLTSEDSAVYFCARRGIYFYSPYALDYWGQGASVTVSS VL: DVVLTQTPLSLPVNIGDQASISCKSTESLLNSDGFTYLDWYLQKPGQSPQLLIYLVSNHFSGVPDRFSGSGSGTDFTLKISRVEAEDLGVYYCFQSNYLPLTFGGGTKLEVKR
				no binding (tested: 10^-8 M)	no binding (tested: about 3x10^-8 M)		anti-FOLR1 antibody 353.9-21 (antibody, mouse IgG1, kappa, V domains shown, Sister subclone of 9.20; also called clone 9.21) VH: QVQLQQSGPDLVKPGASVRISCKASGFTFTNYYIHWVKQRPGQGLEWIGWIYPENVNVRYNDKFKAKATLTADKSSSTAYMQLSSLTSEDSAVYFCARRGIYYYSPYAMDYWGQGASVTVSS VL: DVVLTQTPLSLPVNLGDQASISCKSTKSLLNSDGFTYLDWYLQKPGQSPQLLIYLVSNHFSGVPDRFSGSGSGTDFTLKISRVEAEDLGVYYCFQSNYLPLTFGGGTKLEIKR
